The experiment concerns the target CXCR4 (Homo sapiens, UniProt P61073). Put plainly: Competitive CXCR4 binding assay. Particulars: CHO cells stably transfected with CXCR4; 12G5 antibody competition.

“Also recorded” adds a separate entry of the source.

Chain of CXCR4 (P61073 whole entry): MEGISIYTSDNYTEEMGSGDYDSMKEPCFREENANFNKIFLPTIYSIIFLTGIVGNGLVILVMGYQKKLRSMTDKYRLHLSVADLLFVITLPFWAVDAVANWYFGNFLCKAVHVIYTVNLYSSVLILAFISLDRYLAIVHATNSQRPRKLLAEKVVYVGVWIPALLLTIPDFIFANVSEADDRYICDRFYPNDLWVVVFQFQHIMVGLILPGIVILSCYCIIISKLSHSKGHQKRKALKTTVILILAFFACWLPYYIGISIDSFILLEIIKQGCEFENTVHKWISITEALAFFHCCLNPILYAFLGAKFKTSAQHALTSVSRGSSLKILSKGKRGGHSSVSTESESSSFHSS

For the substance SDF-1α1–8 (KPVSLSYR) [ligand 19], the “CXCR4 binding activity (in words)” value is recorded as “very low CXCR4 binding affinity; also recorded: No binding”.

For the origin of these results see publication PMC5498155 (Bioorganic & medicinal chemistry, 2016).
